Data reported in article PMC10658506 (2023).

B1: yeast-displayed wild-type human IL-11 [human] / soluble human IL-11 receptor extracellular domain, his-tagged [human] (parent complex)
chain 1: PGPPPGPPRVSPDPRAELDSTVLLTRSLLADTRQLAAQLRDKFPADGDHNLDSLPTLAMSAGALGALQLPGVLTRLRADLLSYLRHVQWLRRAGGSSLKTLEPELGTLQARLDRLLRRLQLLMSRLALPQPPPDPPAPPLAPPSSAWGGIRAAHAILGGLHLTLDWAVRGLLLLKTRL
chain 2: SPCPQAWGPPGVQYGQPGRSVKLCCPGVTAGDPVSWFRDGEPKLLQGPDSGLGHELVLAQADSTDEGTYICQTLDGALGGTVTLQLGYPPARPVVSCQAADYENFSCTWSPSQISGLPTRYLTSYRKKTVLGADSQRRSPSTGPWPCPQDPLGAARCVVHGAEFWSQYRINVTEVNPLGASTRLLDVSLQSILRPDPPQGLRVESVPGYPRRLRASWTYPASWPCQPHFLLKFRLQYRPAQHPAWSTVEPAGLEEVITDAVAGLPHAVRVSARDFLDAGTWSTWSPEAWGTPSTGTIPKEIPAWGQLHTQPEVEPQVDSPAPPRPSLQPHPRLLDHRDSVEQVAVLA

Variants of: B1
Experiment: yeast display titration (flow cytometry); parent: 8.2 nM
chain 1 PGPPPGPPRVSPDPRAELDSIVLLTRSLLADTRQLAAQLRDKFPADGDHNLDSLPTPAMSARALGALQLPGVLTRLRADLLSYLRHVQWLRRAGGSSLKTLEPELGTLQARLDRLLRRLQLLMSRLALPQPPPDPPAPPLAPPSSAWGGIRAAHAILGGLHLTLDWAVRGLLLLKTRL gave a Kd of 0.22 nM.
chain 1 PGPPPGPPRVSPDPRAELGSIVLLTRSLLADTRQLAAQLRDKFPADGDHNLDSLPTPAMSARALGALQLPDVLTRLRADLLSYLRHVQWLRRAGGSSLKTLEPELGTLQARLDRLLRRLQLLMSRLALPQPPPDPPAPPLAPPSSAWGGIRAAHAILGGLHLTLDWAVRGLLLLKTRL gave a Kd of 0.19 nM.
Work on chain 1 PGPPPGPPRVSPDPRAELDSTVLLTRSLLADTRQLAAQLRDKFPADGDHNLDSLPTPAMSARALGALQLPGVLTRLRADLLSYLRHVQWLRRAGGSSLKTLEPELGTLQARLDRLLRRLQLLMSRLALPQPPPDPPAPPLAPPSSAWGGIRAAHAILGGLHLTLDWAVRGLLLLKTRL yielded a Kd of 0.42 nM.
